Assay results from US20230045262A1 (Hoffmann-La Roche, published 2023).
Where two headings read alike, the source gives them in different places.

Columns and labels:
[1] = biological target: T1, human 4-1BB on cells (activated human T cells; HeLa-hu4-1BB-NFκB-luc clone 26; Jurkat-hu4-1BB-NFκB-luc2) (human, UniProt Q07011 24-255); experiment: cell-based or functional assay
[2] = biological target: T1, human 4-1BB on cells (activated human T …); experiment: flow cytometry on Jurkat-hu4-1BB-NFκB-luc2 cells
[3] = biological target: T2, human FAP on cells (WM-266-4; NIH/3T3-huFAP clone 19) (human, UniProt Q12884 1-760); experiment: flow cytometry on WM-266-4 cells
T2 construct: transfected in NIH/3T3-huFAP clone 19

[4] = biological target: T2, human FAP on cells (WM-266-4; …); experiment: flow cytometry on NIH/3T3-huFAP clone 19 cells
[5] = biological target: T3, hu4-1BB-SNAP fusion on Hek293 EBNA cells (human, UniProt Q07011 24-255, labeled with the FRET donor Terbium); experiment: TagLite FRET competition on hu4-1BB-SNAP cells; competitor 0.6 nM d2-labelled 20H4.9 IgG; 4 h
T3 construct: also called hu 4-1BB (TagLite); not shown: SNAP tag

[6] = biological target: T1, human 4-1BB on cells (activated human T …); experiment: flow cytometry on activated human CD8+ T cells, PE anti-human Fc secondary
[7] = biological target: T1, human 4-1BB on cells (activated human T …); experiment: flow cytometry on activated human CD4+ T cells, PE anti-human Fc secondary
[8] = biological target: T1, human 4-1BB on cells (activated human T …); experiment: cell-based or functional assay; remark: listed apart in the source
[9] = biological target: T1, human 4-1BB on cells (activated human T …); experiment: cell-based or functional assay; remark: listed apart in the source
[10] = biological target: T3, hu4-1BB-SNAP fusion on Hek293 EBNA cells; experiment: TagLite FRET competition on hu4-1BB-SNAP cells; competitor 0.6 nM d2-labelled 20H4.9 IgG; 4 h; remark: listed apart in the source

EC50 of Jurkat-hu4-1BB-NFκB-luc2 reporter cell line activation curves in the presence of CEA-expressing MKN45 tumor cells [1] | EC50 [2] | EC50 [3] | EC50 [4] | EC50 [5] | EC50 interval [5] | EC50 [6] | EC50 [7] | EC50 of activation of the NFκB signaling pathway (luciferase, HeLa-hu4-1BB-NFκB-luc), no FAP+ cells [8] | EC50 of activation of the NFκB signaling pathway (luciferase, HeLa-hu4-1BB-NFκB-luc), with 3T3-huFAP cells [8] | EC50 of activation of the NFκB signaling pathway (luciferase, HeLa-hu4-1BB-NFκB-luc), with WM-266-4 cells [8] | EC50 of human PBMC activation curves, % CD25+ CD4 (with NIH/3T3-huFAP cells and anti-CD3) [9] | EC50 of human PBMC activation curves, % CD25+ CD8 (with NIH/3T3-huFAP cells and anti-CD3) [9] | EC50 of human PBMC activation curves, % proliferating CD4 (with NIH/3T3-huFAP cells and anti-CD3) [9] | EC50 of human PBMC activation curves, % proliferating CD8 (with NIH/3T3-huFAP cells and anti-CD3) [9] | EC50 [10] | EC50 interval [10] | Binder
0.09 nM | 0.06 nM |  |  |  |  |  |  |  |  |  |  |  |  |  |  |  | 2+1 4-1BB (20H4.9)/CEA(A5B7P) human IgG1 PGLALA, CEA with CHCL crossfab (bispecific antibody, also called 4-1BB (20H4.9)×CEA (A5B7P) 2+1 CHCL crossfab; knob-CHCL crossfab) heavy 1: not shown heavy 2: QVQLQQWGAGLLKPSETLSLTCAVYGGSFSGYYWSWIRQSPEKGLEWIGEINHGGYVTYNPSLESRVTISVDTSKNQFSLKLSSVTAADTAVYYCARDYGPGNYDWYFDLWGRGTLVTVSSASTKGPSVFPLAPSSKSTSGGTAALGCLVEDYFPEPVTVSWNSGALTSGVHTFPAVLQSSGLYSLSSVVTVPSSSLGTQTYICNVNHKPSNTKVDEKVEPKSCDKTHTCPPCPAPEAAGGPSVFLFPPKPKDTLMISRTPEVTCVVVDVSHEDPEVKFNWYVDGVEVHNAKTKPREEQYNSTYRVVSVLTVLHQDWLNGKEYKCKVSNKALGAPIEKTISKAKGQPREPQVCTLPPSRDELTKNQVSLSCAVKGFYPSDIAVEWESNGQPENNYKTTPPVLDSDGSFFLVSKLTVDKSRWQQGNVFSCSVMHEALHNHYTQKSLSLSPGK light 1: not shown light 2: QTVLSQSPAILSASPGEKVTMTCRASSSVTYIHWYQQKPGSSPKSWIYATSNLASGVPARFSGSGSGTSYSLTISRVEAEDAATYYCQHWSSKPPTFGGGTKLEIKSSASTKGPSVFPLAPSSKSTSGGTAALGCLVKDYFPEPVTVSWNSGALTSGVHTFPAVLQSSGLYSLSSVVTVPSSSLGTQTYICNVNHKPSNTKVDKKVEPKSC
 |  | 1.6 nM | 2 nM | 0.5 nM | 0.3 to 0.7 nM | 0.1 nM | 0.1 nM | 0.13 nM | 0.04 nM | 0.05 nM | 6 pM | 0.009 nM | 3 pM | 2 pM |  |  | 4-1BB (20H4.9)/FAP (4B9) P329GLALA IgG1 4+1 (hole-VH) (bispecific antibody, also called 4-1BB (20H4.9)×FAP (4B9) 4+1; 20H4.9/4B9 4+1) heavy 1: QVQLQQWGAGLLKPSETLSLTCAVYGGSFSGYYWSWIRQSPEKGLEWIGEINHGGYVTYNPSLESRVTISVDTSKNQFSLKLSSVTAADTAVYYCARDYGPGNYDWYFDLWGRGTLVTVSSASTKGPSVFPLAPSSKSTSGGTAALGCLVKDYFPEPVTVSWNSGALTSGVHTFPAVLQSSGLYSLSSVVTVPSSSLGTQTYICNVNHKPSNTKVDKKVEPKSCDGGGGSGGGGSQVQLQQWGAGLLKPSETLSLTCAVYGGSFSGYYWSWIRQSPEKGLEWIGEINHGGYVTYNPSLESRVTISVDTSKNQFSLKLSSVTAADTAVYYCARDYGPGNYDWYFDLWGRGTLVTVSSASTKGPSVFPLAPSSKSTSGGTAALGCLVKDYFPEPVTVSWNSGALTSGVHTFPAVLQSSGLYSLSSVVTVPSSSLGTQTYICNVNHKPSNTKVDKKVEPKSCDKTHTCPPCPAPEAAGGPSVFLFPPKPKDTLMISRTPEVTCVVVDVSHEDPEVKFNWYVDGVEVHNAKTKPREEQYNSTYRVVSVLTVLHQDWLNGKEYKCKVSNKALGAPIEKTISKAKGQPREPQVCTLPPSRDELTKNQVSLSCAVKGFYPSDIAVEWESNGQPENNYKTTPPVLDSDGSFFLVSKLTVDKSRWQQGNVFSCSVMHEALHNHYTQKSLSLSPGGGGGSGGGGSGGGGSGGGGSEVQLLESGGGLVQPGGSLRLSCAASGFTFSSYAMSWVRQAPGKGLEWVSAIIGSGASTYYADSVKGRFTISRDNSKNTLYLQMNSLRAEDTAVYYCAKGWFGGFNYWGQGTLVTVSS heavy 2: not shown light: not shown
 |  | 0.7 nM | 1.7 nM |  |  | 0.1 nM | 0.1 nM | 0.73 nM | 0.07 nM | 0.08 nM | 5 pM | 0.02 nM | 4 pM | 1 pM | 1.6 nM | 1.2 to 2.3 nM | 4-1BB (20H4.9)/FAP (4B9) P329GLALA IgG1 2+1 (hole-VH) (bispecific antibody, also called 4-1BB (20H4.9)×FAP (4B9) 2+1; 20H4.9/4B9 2+1) heavy 1: QVQLQQWGAGLLKPSETLSLTCAVYGGSFSGYYWSWIRQSPEKGLEWIGEINHGGYVTYNPSLESRVTISVDTSKNQFSLKLSSVTAADTAVYYCARDYGPGNYDWYFDLWGRGTLVTVSSASTKGPSVFPLAPSSKSTSGGTAALGCLVKDYFPEPVTVSWNSGALTSGVHTFPAVLQSSGLYSLSSVVTVPSSSLGTQTYICNVNHKPSNTKVDKKVEPKSCDKTHTCPPCPAPEAAGGPSVFLFPPKPKDTLMISRTPEVTCVVVDVSHEDPEVKFNWYVDGVEVHNAKTKPREEQYNSTYRVVSVLTVLHQDWLNGKEYKCKVSNKALGAPIEKTISKAKGQPREPQVCTLPPSRDELTKNQVSLSCAVKGFYPSDIAVEWESNGQPENNYKTTPPVLDSDGSFFLVSKLTVDKSRWQQGNVFSCSVMHEALHNHYTQKSLSLSPGGGGGSGGGGSGGGGSGGGGSEVQLLESGGGLVQPGGSLRLSCAASGFTFSSYAMSWVRQAPGKGLEWVSAIIGSGASTYYADSVKGRFTISRDNSKNTLYLQMNSLRAEDTAVYYCAKGWFGGFNYWGQGTLVTVSS heavy 2: not shown light: not shown
0.16 nM | 0.06 nM |  |  |  |  |  |  |  |  |  |  |  |  |  |  |  | 2+1 4-1BB (20H4.9)/CEA(A5B7P) human IgG1 PGLALA, (G4S)4, hole-VH (bispecific antibody, also called 4-1BB (20H4.9)×CEA (A5B7P) 2+1; C-terminal VH/VL fusion of the A5B7P clone) heavy 1: QVQLQQWGAGLLKPSETLSLTCAVYGGSFSGYYWSWIRQSPEKGLEWIGEINHGGYVTYNPSLESRVTISVDTSKNQFSLKLSSVTAADTAVYYCARDYGPGNYDWYFDLWGRGTLVTVSSASTKGPSVFPLAPSSKSTSGGTAALGCLVKDYFPEPVTVSWNSGALTSGVHTFPAVLQSSGLYSLSSVVTVPSSSLGTQTYICNVNHKPSNTKVDKKVEPKSCDKTHTCPPCPAPEAAGGPSVFLFPPKPKDTLMISRTPEVTCVVVDVSHEDPEVKFNWYVDGVEVHNAKTKPREEQYNSTYRVVSVLTVLHQDWLNGKEYKCKVSNKALGAPIEKTISKAKGQPREPQVCTLPPSRDELTKNQVSLSCAVKGFYPSDIAVEWESNGQPENNYKTTPPVLDSDGSFFLVSKLTVDKSRWQQGNVFSCSVMHEALHNHYTQKSLSLSPGGGGGSGGGGSGGGGSGGGGSEVKLVESGGGLVQPGGSLRLSCATSGFTFTDYYMNWVRQPPGKALEWLGFIGNKANGYTTEYSASVKGRFTISRDKSQSILYLQMNTLRAEDSATYYCTRDRGLRFYFDYWGQGTTLTVSS heavy 2: not shown light: not shown
0.19 nM | 0.07 nM |  |  |  |  |  |  |  |  |  |  |  |  |  |  |  | 2+1 4-1BB (20H4.9)/CEA(T84.66-LCHA) human IgG1 PGLALA, (G4S)4 hole-VH (bispecific antibody, also called 4-1BB (20H4.9)×CEA (T84.66-LCHA) 2+1) heavy 1: QVQLQQWGAGLLKPSETLSLTCAVYGGSFSGYYWSWIRQSPEKGLEWIGEINHGGYVTYNPSLESRVTISVDTSKNQFSLKLSSVTAADTAVYYCARDYGPGNYDWYFDLWGRGTLVTVSSASTKGPSVFPLAPSSKSTSGGTAALGCLVKDYFPEPVTVSWNSGALTSGVHTFPAVLQSSGLYSLSSVVTVPSSSLGTQTYICNVNHKPSNTKVDKKVEPKSCDKTHTCPPCPAPEAAGGPSVFLFPPKPKDTLMISRTPEVTCVVVDVSHEDPEVKFNWYVDGVEVHNAKTKPREEQYNSTYRVVSVLTVLHQDWLNGKEYKCKVSNKALGAPIEKTISKAKGQPREPQVCTLPPSRDELTKNQVSLSCAVKGFYPSDIAVEWESNGQPENNYKTTPPVLDSDGSFFLVSKLTVDKSRWQQGNVFSCSVMHEALHNHYTQKSLSLSPGGGGGSGGGGSGGGGSGGGGSQVQLVQSGAEVKKPGSSVKVSCKASGFNIKDTYMHWVRQAPGQGLEWMGRIDPANGNSKYVPKFQGRVTITADTSTSTAYMELSSLRSEDTAVYYCAPFGYYVSDYAMAYWGQGTLVTVSS heavy 2: not shown light: not shown
